Source: patent US20260274985A1 (MYTHIC THERAPEUTICS, published 2026)

Legend:
[1] = target: T1, Human TROP2 Protein, His Tag (Acro Biosystems) (human, UniProt P09758 27-274); test: Octet BLI, IgG on anti-human Fc sensor, 50 nM TROP2-His; 2 = No change vs parent
T1 construct: not shown: His tag
T1 sequence (looked up): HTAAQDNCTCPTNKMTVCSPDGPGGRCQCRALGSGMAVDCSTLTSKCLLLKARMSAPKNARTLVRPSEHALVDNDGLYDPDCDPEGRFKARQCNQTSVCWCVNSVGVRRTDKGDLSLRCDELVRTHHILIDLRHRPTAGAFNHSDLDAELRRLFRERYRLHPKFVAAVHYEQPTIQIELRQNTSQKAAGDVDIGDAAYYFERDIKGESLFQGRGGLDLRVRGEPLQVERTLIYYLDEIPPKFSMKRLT

[2] = target: T1, Human TROP2 Protein, His Tag (Acro …); test: Octet BLI, IgG on anti-human Fc sensor, 50 nM TROP2-His; 1 = pH dependent
[3] = target: T1, Human TROP2 Protein, His Tag (Acro …); test: BLI (Octet)
[4] = target: T1, Human TROP2 Protein, His Tag (Acro …); test: Octet BLI, IgG on anti-human Fc sensor, 50 nM TROP2-His; 1 = pH dependent; remark: listed apart in the source
[5] = target: T2, Human TROP2 Protein, His Tag (Acro Biosystems) (human, UniProt P09758 27-274); test: BLI (Octet) [2/2]
T2 construct: not shown: His tag
T2 sequence (looked up): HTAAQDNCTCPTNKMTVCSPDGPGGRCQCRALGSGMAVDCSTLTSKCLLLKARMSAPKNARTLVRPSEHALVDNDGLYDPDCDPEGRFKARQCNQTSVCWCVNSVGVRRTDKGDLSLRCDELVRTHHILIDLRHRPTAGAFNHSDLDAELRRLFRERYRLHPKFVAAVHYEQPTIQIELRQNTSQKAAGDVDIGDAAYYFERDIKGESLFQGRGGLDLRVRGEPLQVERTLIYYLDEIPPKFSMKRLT

[6] = target: T3, Human TROP2 Protein, His Tag (Acro Biosystems) (human, UniProt P09758 27-274); test: BLI (Octet), IgG on anti-human Fc sensor, 50 nM TROP2-His; 1 = pH dependent
T3 construct: also called TACSTD2; not shown: His tag
T3 sequence (looked up): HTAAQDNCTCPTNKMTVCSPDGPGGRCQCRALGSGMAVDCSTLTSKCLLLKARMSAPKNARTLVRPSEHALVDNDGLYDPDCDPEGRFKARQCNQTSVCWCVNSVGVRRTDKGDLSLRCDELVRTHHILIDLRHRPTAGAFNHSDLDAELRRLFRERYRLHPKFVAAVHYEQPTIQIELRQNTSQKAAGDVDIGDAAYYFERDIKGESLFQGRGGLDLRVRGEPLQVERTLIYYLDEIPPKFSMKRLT
Procedure: After allowing for four days of protein expression, cell culture supernatants were collected, quantified by SDS-PAGE analysis (DNS), and the pH dependence of the variant was evaluated using biolayer interferometry (BLI) on an Octet RED 96e instrument. Briefly, cell culture supernatants were diluted based on qualitative expression level of the variant determined by visual examination of SDS-PAGE gels, 5 μL of cell culture supernatant was diluted into 195 μL of 1×PBST, pH 7.4 for high expressors, 25 μL of cell culture supernatant was diluted into 175 μL of 1×PBST, pH 7.4 for medium expressors and 100 μL of cell culture supernatant was diluted into 100 μL of 1×PBST, pH 7.4 for low expressors for loading onto the sensor tips. The resulting diluted supernatants were then captured on an anti-human Fc sensor (Forte Bio). A baseline was established using 1×PBST (50 mM Potassium Phosphate Buffer+150 mM NaCl+0.05% Tween 20) pH 7.4, and the sensor was associated with 50 nM of TROP2 (Human TROP2 Protein, His Tag, Acro Biosystems) in 1×PBST pH 7.4 for 120 sec to generate an association curve. In the dissociation phase, the antibody-antigen complex on the sensor was exposed to 1×PBST pH 7.4 or pH 5.4, for 300 sec. […]

B1: MYT12296 (antibody, V domains shown)
VH: QVQLQQSGSELKKPGASVKVSCKASGYTFTNHGMNWVKQAPGQGLKWMGWINTYTGEPTYTHDFKGRFAFSLDTSVSTAYLQISSLKADDTAVYFCARGGFGSSYWYFDVWGQGSLVTVSS
VL: DIQLTQSPSSLSASVGDRVSITCKASQDVSIAVAWYQQKPGKAPKLLIYSASYRYTGVPDRFSGSGSGTDFTLTISSLQPEDFAVYYCQQHYITPLTFGAGTKVEIK
notes: sacituzumab VH 32, 62 -> H
binding result [1]: binds

B2: MYT12399 (antibody, V domains shown)
VH: QVQLVQSGAEVKKPGASVKVSCKASGYTFTTAGMQWVRQAPGQGLEWMGWINTHSGVPKYAEDFKGRVTISADTSTSTAYLQLSSLKSEDTAVYYCARSGFGSSYWYFDVWGQGTLVTVSS
VL: DIQMTQSPSSLSASVGDRVTITCKASQHVSTAVAWYQQKPGKAPKLLIYSHSYRYTGVPSRFSGSGSGTDFTLTISSLQPEDFAVYYCHQHYITPLTFGQGTKLEIK
notes: datopotamab VL 28, 51, 89 substituted
binding result [2]: binds

B3: MYT12388 (antibody, V domains shown)
VH: QVQLVQSGAEVKKPGASVKVSCKASGYTFTTAGMQWVRQAPGQGLEWMGWINTHSGVPKYAEDFKGRVTISADTSTSTAYLQLSSLKSEDTAVYYCARSGFGSSYWYFDVWGQGTLVTVSS
VL: DIQMTQSPSSLSASVGDRVTITCKASQHVSTAVAWYQQKPGKAPKLLIYSHSYRYTGVPSRFSGSGSGTDFTLTISSLQPEDFAVYYCQQHYITPLTFGQGTKLEIK
notes: datopotamab VL 28, 51 substituted
binding result [3]: binds

B4: MYT12317 (antibody, V domains shown)
VH: QVQLQQSGSELKKPGASVKVSCKASGYTFTNYGMNWVKQAPGQGLKWMGWINTYTGEPTYTDHFHGRFAFSLDTSVSTAYLQISSLKADDTAVYFCARGGFGSSYWYFDVWGQGSLVTVSS
VL: DIQLTQSPSSLSASVGDRVSITCKASQDVSIAVAWYQQKPGKAPKLLIYSASYRYTGVPDRFSGSGSGTDFTLTISSLQPEDFAVYYCQQHYITPLTFGAGTKVEIK
notes: sacituzumab VH 63, 65 -> H
binding result [4]: binds

B5: MYT13257 (antibody, V domains shown)
VH: QVQLVQSGAEVKKPGASVKVSCKASGYTFTTAGMQWVRQAPGQGLEWMGWINTHSGVPKYAEDFKGRVTISADTSTSTAYLQLSSLKSEDTAVYYCAHSGFGSSYWYFDVWGQGTLVTVSS
VL: DIQMTQSPSSLSASVGDRVTITCKASQDHSTAVAWYQQKPGKAPKLLIYSASYRYTGVPSRFSGSGSGTDFTLTISSLQPEDFAVYYCQQHYITPLTFGQGTKLEIK
notes: Full-length IgG from Expi293 supernatant; also called datopotamab heavy chain and light chain pairing variant
binding result [5]: binds

B6: MYT13385 (antibody, V domains shown)
VH: QVQLQQSGSELKKPGASVKVSCKASGYTFTNYGMNWVKQAPGQGLKWMGWINTYTGEPTYTHDFKGRFAFSLDTSVSTAYLQISSLKADDTAVYFCARGGFGSSYWYFDVWGQGSLVTVSS
VL: DIQLTQSPSSLSASVGDRVSITCKASQDVHIAVAWYQQKPGKAPKLLIYSAHYRYTGVPDRFSGSGSGTDFTLTISSLQPEDFAVYYCQQHYITPLTFGAGTKVEIK
notes: Sacituzumab HC-LC pairing variant
binding result [6]: binds
